Measured values as given in patent publication US20240116985A1 (published 2024).
Starred links: 1 amine or outer side, 2 acyl side, 3 side chain; linkers in the order of their positions; H or OH if unused. Positions of bridges follow the written chain, without caps; N, C: chain ends. Non-standard residues stand in square brackets, D forms with d. Primed or numbered codes have the meaning given here. B5(4) = 2,2-bis(4-pentenyl)glycine = 2-amino-2-(pent-4-en-1-yl)hept-6-enoic acid (stitching residue), C=CCCCC(CCCC=C)(N[*:1])C(=O)[*:2]; B5(21) = 2-amino-2-(pent-4-en-1-yl)hept-6-enoic acid, bis(4-pentenyl)glycine (stitching residue), C=CCCCC(CCCC=C)(N[*:1])C(=O)[*:2]; B5(9) = 2-amino-2-(pent-4-en-1-yl)hept-6-enoic acid (2,2-bis(4-pentenyl)glycine), C=CCCCC(CCCC=C)(N[*:1])C(=O)[*:2]; (NHCyBu)AsnR = N4-cyclobutyl-L-asparagine, O=C(C[C@H](N[*:1])C(=O)[*:2])NC1CCC1; 23FF = 2,3-difluoro-L-phenylalanine, O=C([C@H](Cc1cccc(F)c1F)N[*:1])[*:2]; (NHMe)AsnR = N4-methyl-L-asparagine, CNC(=O)C[C@H](N[*:1])C(=O)[*:2]; TOMe = O-methyl-L-threonine, CO[C@H](C)[C@H](N[*:1])C(=O)[*:2]; Phe(3-CF3) = N[C@@H](Cc1cccc(C(F)(F)F)c1)C(=O)O; Phe(3,5-F2) = N[C@@H](Cc1cc(F)cc(F)c1)C(=O)O; Bta = N[C@@H](Cc1csc2ccccc12)C(=O)O; αAllylPro = C=CC[C@@]1(C(=O)O)CCCN1; S8 = C=CCCCCCC[C@](C)(N)C(=O)O

B1: I-542 (peptide)
peptide: XDTXDEAAFQXFXQ
modifications: not fully specified; Ac-PL3-Asp-TOMe-B5-Asp-Glu-Ala-Ala-Phe-Gln-S8-Phe-BztA-Gln-NH2; N-terminal acetyl, C-terminal amide; non-natural: PL3(1), TOMe(3), B5(4), S8(11), BztA(13); staples PL3(1)-B5(4) and B5(4)-S8(11)
B2: I-563 (peptide)
peptide: XDLXDDAAFNXFXQ
modifications: not fully specified; Ac-PL3-Asp-Leu-B5-Asp-Asp-Ala-Ala-Phe-Asn-S8-Phe-BztA-Gln-NH2; N-terminal acetyl, C-terminal amide; non-natural: PL3(1), B5(4), S8(11), BztA(13); staples PL3(1)-B5(4) and B5(4)-S8(11)
B3: I-376 (peptide)
peptide: Ac-[αAllylPro]DA[B5(4)]DDAA[Phe(3-CF3)]A[S8]F[Bta]Q-NH2
modifications: staple 1-4, 4-11; not fully specified; printed as Ac-PL3-Asp-Ala-B5-Asp-Asp-Ala-Ala-3F3MeF-Ala-S8-Phe-BztA-Gln-NH2
notes: Stapled peptide
B4: I-377 (peptide)
peptide: Ac-[αAllylPro]DA[B5(4)]DDAA[Phe(3-CF3)]A[S8]F[Bta]Q-NH2
modifications: staple 1-4, 4-11; not fully specified; printed as Ac-PL3-Asp-Ala-B5-Asp-Asp-Ala-Ala-3F3MeF-Ala-S8-Phe-BztA-Gln-NH2
notes: Stapled peptide
B5: I-378 (peptide)
peptide: Ac-[αAllylPro]DA[B5(9)]DDAA[Phe(3-CF3)]Q[S8]F[Bta]Q-NH2
modifications: staple 1-4, 4-11; not fully specified; printed as Ac-PL3-Asp-Ala-B5-Asp-Asp-Ala-Ala-3F3MeF-Gln-S8-Phe-BztA-Gln-NH2
notes: Stapled peptide
B6: I-379 (peptide)
peptide: Ac-[αAllylPro]DA[B5(9)]DDAA[Phe(3-CF3)]Q[S8]F[Bta]Q-NH2
modifications: staple 1-4, 4-11; not fully specified; printed as Ac-PL3-Asp-Ala-B5-Asp-Asp-Ala-Ala-3F3MeF-Gln-S8-Phe-BztA-Gln-NH2
notes: Stapled peptide
B7: I-380 (peptide)
peptide: Ac-[αAllylPro]DA[B5(9)]DDAA[Phe(3-CF3)]Q[S8]F[Bta]Q-NH2
modifications: staple 1-4, 4-11; not fully specified; printed as Ac-PL3-Asp-Ala-B5-Asp-Asp-Ala-Ala-3F3MeF-Gln-S8-Phe-BztA-Gln-NH2
notes: Stapled peptide
B8: I-381 (peptide)
peptide: XDAXDNAAFVXFXQ
modifications: not fully specified; Ac-PL3-Asp-Ala-B5-Asp-Asn-Ala-Ala-Phe-Val-S8-3FF-BztA-Gln-NH2: N-terminal acetyl, C-terminal amide; non-natural PL3(1), B5(4), S8(11), 3FF(12), BztA(13); staples PL3-B5 and B5-S8
notes: Stapled peptide
B9: I-382 (peptide)
peptide: XDAXDNAAFVXFXQ
modifications: not fully specified; Ac-PL3-Asp-Ala-B5-Asp-Asn-Ala-Ala-Phe-Val-S8-3FF-BztA-Gln-NH2: N-terminal acetyl, C-terminal amide; non-natural PL3(1), B5(4), S8(11), 3FF(12), BztA(13); staples PL3-B5 and B5-S8
notes: Stapled peptide
B10: I-394 (peptide)
peptide: Ac-[αAllylPro]DA[B5(9)]DEAAFV[S8][Phe(3,5-F2)][Bta]Q-NH2
modifications: staple 1-4, 4-11
notes: Stapled peptide composition (olefin metathesis)
B11: I-396 (peptide)
peptide: XDAXDHAAFVXFXQ
modifications: not fully specified; Ac-PL3-Asp-Ala-B5-Asp-His-Ala-Ala-Phe-Val-S8-3FF-BztA-Gln-NH2: N-terminal acetyl, C-terminal amide; non-natural PL3(1), B5(4), S8(11), 3FF(12), BztA(13); staples PL3-B5 and B5-S8
notes: Stapled peptide
B12: I-373 (peptide)
peptide: Ac-[αAllylPro]DA[B5(4)]DDAA[Phe(3-CF3)]V[S8]F[Bta]Q-NH2
modifications: staple 1-4, 4-11
notes: as for B10

target: T1, full-length beta-Catenin (Uniprot ID P35222) (Homo sapiens (Human), UniProt P35222 1-781); test: fluorescence polarization competition; displacement of 5FAM-TCF4(10-53) from full-length beta-catenin
T1 construct: also called bCat; B-Catenin
T1 sequence: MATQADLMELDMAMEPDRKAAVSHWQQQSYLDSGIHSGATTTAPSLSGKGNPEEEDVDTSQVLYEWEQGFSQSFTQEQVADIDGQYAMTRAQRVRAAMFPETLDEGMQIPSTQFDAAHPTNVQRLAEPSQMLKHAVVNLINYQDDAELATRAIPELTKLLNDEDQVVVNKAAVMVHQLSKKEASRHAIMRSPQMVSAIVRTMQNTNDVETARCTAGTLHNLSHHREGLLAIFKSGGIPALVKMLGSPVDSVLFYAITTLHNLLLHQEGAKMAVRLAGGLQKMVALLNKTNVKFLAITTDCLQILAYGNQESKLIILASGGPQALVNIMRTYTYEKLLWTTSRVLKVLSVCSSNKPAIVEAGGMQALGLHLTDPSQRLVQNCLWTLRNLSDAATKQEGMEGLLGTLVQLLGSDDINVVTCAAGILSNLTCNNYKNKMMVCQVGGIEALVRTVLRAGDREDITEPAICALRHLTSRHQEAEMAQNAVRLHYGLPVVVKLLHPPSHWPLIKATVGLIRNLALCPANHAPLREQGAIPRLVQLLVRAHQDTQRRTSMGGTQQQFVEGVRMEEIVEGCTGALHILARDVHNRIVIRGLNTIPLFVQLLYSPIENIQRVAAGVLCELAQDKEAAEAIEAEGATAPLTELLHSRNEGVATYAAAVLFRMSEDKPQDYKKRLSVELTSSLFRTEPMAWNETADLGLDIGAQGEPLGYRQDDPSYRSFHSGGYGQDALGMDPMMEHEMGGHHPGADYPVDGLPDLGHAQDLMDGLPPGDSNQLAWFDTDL
Procedure: (§1) The plate was incubated protected from light for 60 minutes at 20° C. prior to read. Reads were performed on a CLARIOstar plate reader (BMG Labtech) in duplicate, and data were fitted to a 1:1 binding model with hill slope using an in-house script. All provided concentrations are final concentrations.

Ac-[αAllylPro]DA[B5(21)][(NHCyBu)AsnR]DAAFV[S8]F[Bta]Q-NH2 (staple 1-4, 4-11, Stapled (stitched) peptide composition) [I-539] and Ac-[αAllylPro]DA[B5(21)][(NHMe)AsnR]DAAFV[S8]F[Bta]Q-NH2 (staple 1-4, 4-11, Stapled (stitched) peptide composition) [I-540] are the same in EC50: 5000 nM for the first, 5000 nM for the second.

Going from Ac-[αAllylPro]D[TOMe][B5(21)]DEAAFQ[S8]F[Bta]Q-NH2 (staple 1-4, 4-11) [I-541] to B1, the EC50 falls from 180 nM to 109 nM (1.7-fold).

Binder B2 has an EC50 of 19 nM.

target: T2, full-length beta-Catenin (Uniprot ID P35222) (Homo sapiens (Human), UniProt P35222 1-781); test: fluorescence polarization competition; 10 nM full-length beta-catenin, competitor 10 nM 5FAM-TCF4(10-53)
T2 construct: also called bCat; B-Catenin
T2 sequence: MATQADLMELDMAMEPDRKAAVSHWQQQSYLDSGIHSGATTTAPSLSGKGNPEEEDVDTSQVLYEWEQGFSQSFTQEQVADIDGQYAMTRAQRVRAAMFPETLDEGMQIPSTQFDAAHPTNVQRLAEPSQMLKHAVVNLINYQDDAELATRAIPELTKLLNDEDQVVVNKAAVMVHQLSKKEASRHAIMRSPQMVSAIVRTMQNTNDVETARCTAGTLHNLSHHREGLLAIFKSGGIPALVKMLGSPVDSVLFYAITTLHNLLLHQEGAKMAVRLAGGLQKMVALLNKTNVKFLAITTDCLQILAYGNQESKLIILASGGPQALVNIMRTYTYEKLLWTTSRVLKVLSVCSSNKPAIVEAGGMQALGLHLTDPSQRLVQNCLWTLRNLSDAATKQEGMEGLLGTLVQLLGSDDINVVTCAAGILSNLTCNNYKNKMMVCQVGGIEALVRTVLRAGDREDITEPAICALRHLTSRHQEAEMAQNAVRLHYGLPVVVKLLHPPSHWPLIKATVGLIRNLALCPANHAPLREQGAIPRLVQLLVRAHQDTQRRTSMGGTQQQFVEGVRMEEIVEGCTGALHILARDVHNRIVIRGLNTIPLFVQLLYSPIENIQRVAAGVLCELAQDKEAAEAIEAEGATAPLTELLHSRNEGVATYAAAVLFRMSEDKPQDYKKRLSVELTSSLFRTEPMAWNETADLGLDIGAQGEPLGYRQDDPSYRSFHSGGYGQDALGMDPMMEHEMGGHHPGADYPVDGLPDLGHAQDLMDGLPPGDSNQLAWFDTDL
Procedure: as §1

B3 and B4 are the same in EC50: 1320 nM for the first, 1320 nM for the second.

B5 and B6 are the same in EC50: 1340 nM for the first, 1340 nM for the second.

Going from B7 to B8, the EC50 rises from 552 nM to 3650 nM (6.6-fold).

Compared with B9, Ac-[αAllylPro]DA[B5(9)]DEAAFV[S8][23FF][Bta]Q-NH2 (staple 1-4, 4-11; also: earlier eluting HPLC isomer, E/Z not assigned, Stapled peptide) [I-388] is 2.4-fold higher in EC50: 2060 nM for the first, 5000 nM for the second. The first is the more potent here.

Ac-[αAllylPro]DA[B5(9)]DEAAFV[S8][23FF][Bta]Q-NH2 (staple 1-4, 4-11; also: later eluting HPLC isomer, E/Z not assigned, Stapled peptide) [I-389] and Ac-[αAllylPro]DA[B5(9)]DEAA[23FF]V[S8]F[Bta]Q-NH2 (staple 1-4, 4-11; also: earlier eluting HPLC isomer, E/Z not assigned, Stapled peptide) [I-390] are within 1.5-fold of each other in EC50: 5000 nM for the first, 3420 nM for the second.

First: Ac-[αAllylPro]DA[B5(9)]DEAA[23FF]V[S8]F[Bta]Q-NH2 (staple 1-4, 4-11; also: later eluting HPLC isomer, E/Z not assigned, Stapled peptide) [I-391]
Second: B10
The EC50 of the first is 2.6-fold lower: 1910 nM for the first, 5000 nM for the second.

First: B11
Second: B12
The EC50 of the first is 3.6-fold higher: 3430 nM for the first, 945 nM for the second.
